Laboratory results reported in article PMC5573810 (2017).

B1: PGT133 (antibody, V domains shown)
VH: QVHLQESGPGLVTPSETLSLTCTVSNGSVSGRFWSWIRQSPGRGLEWIGYFSDTDRSEYNPSLRSRLTLSVDRSKNQLSLRLKSVTAADSATYYCARAQQGKRIYGIVSFGEFFYYYYMDAWGKGTPVTVSS
VL: LSLAPGATAKIPCGERSRGSRAVQWYQQKPGQAPTLIIYNNQDRPAGVSERFSGNPDVAIGVTATLTISRVEVGDEADYYCHYWDSRSPISWIFGGGTQLTVL
B2: PGT124 (antibody, V domains shown)
VH: QVQLQESGPGLVRPSETLSVTCIVSGGSISNYYWTWIRQSPGKGLEWIGYISDRETTTYNPSLNSRAVISRDTSKNQLSLQLRSVTTADTAIYFCATARRGQRIYGVVSFGEFFYYYYMDVWGKGTAVTVSS
VL: SYVSPLSVALGETARISCGRQALGSRAVQWYQHKPGQAPILLIYNNQDRPSGIPERFSGTPDINFGTTATLTISGVEVGDEADYYCHMWDSRSGFSWSFGGATRLTVL

How the values were obtained:
Assay in all cases: ELISA
[1] = target: gp120-ferritin (gp120-FR) nanoparticle
[2] = target: N332 nanoparticle (1GUT_A_ES-FR)
[3] = target: clade-C (ZM109) V1V2-ferritin nanoparticle (V1V2-FR) (HIV-1 ZM109 (clade C) | )

Row | Binder | EC50 [1] [mg/L] | EC50 [2] [mg/L] | EC50 [3] [mg/L]
1 | B1 | 0.042 | 0.024 | 0.26
2 | B2 | 0.026 | 0.03 | –
